PMC12914668

Tests used:
Experiment in all cases: fluorescence polarisation; fluorescence anisotropy; 5 nM OG488-labelled histone monomer held constant, ligase complex titrated; 20 mM Tris-HCl pH 7.5, 10 mM NaCl, 5% glycerol, 1 mM DTT; 25 °C, 1 to 2.5 h; BSA-coated black 96-well plates
[1] = target: Xenopus laevis histone H3, Oregon Green 488 labelled at C110 (Xenopus laevis) (UniProt P84233)
[2] = target: Xenopus laevis histone H2A K119C, Oregon Green 488 labelled (Xenopus laevis)
[3] = target: Xenopus laevis histone H4 V22C, Oregon Green 488 labelled (Xenopus laevis) (UniProt P62799)

Row | Substance | Kd [1] [nM] | Kd [2] [nM] | Kd [3] [nM]
1 | ASB9-ELOB/C-CUL5-RBX2 (ASB9-CRL5), not neddylated (from UniProt Q96DX5 1-294; Q15370 1-118; Q15369 1-112; Q93034 1-780; Q9UBF6 1-113) (complex) | 187 | 341 | 79.7
2 | NEDD8-ASB9-ELOB/C-CUL5-RBX2 (neddylated ASB9-CRL5) (from UniProt Q96DX5 1-294; Q15370 1-118; Q15369 1-112; Q93034 1-780; Q9UBF6 1-113; Q15843 1-76) (complex) | 78.2 | – | 48.4
